Entries after “also recorded” stand apart in the source; their conditions may differ.
What was measured:
Format in all cases: cell-based, human
[1] = test system: MLC phosphorylation (MLC-P); test: MLC-P immunoblot in HMVEC-L; conditions: Ang-1, HMVEC-L
Procedure: HMVEC-L were washed with ice-cold PBS three times and lysed with ice-cold RIPA buffer (50 mM Tris-HCl pH7.4, 150 mM NaCl, 1% NP-40, 0.5% Sodium Deoxycholate, 0.1% SDS and 1 mM EDTA) supplemented with protease inhibitors (Roche Diagnostics, Indianapolis, Ind.), 1 mM NaF and 1 mM Na3VO4. Lysates were sonicated and centrifuged at 10,000 rpm for 10 minutes at 4° C., and supernatants were collected. Protein concentrations were determined by BCA protein assay with bovine serum albumin as standard (Pierce, Rockford, Ill.). Lysates were electrophoresed using NuPAGE system (Invitrogen Life Technologies, Franklin Lakes, N.J.) and transferred to PVDF membrane and immunoblotted with specific primary antibodies. Binding of primary antibodies was detected using horseradish peroxidase-conjugated secondary antibodies (Amersham Bioscience, Piscataway, N.J.) and SuperSignal WestDura (Pierce) as a chemiluminescence substrate. Primary antibodies were obtained from these suppliers: anti-phospho-Akt Ab (Ser 473), anti-Akt Ab and anti-phospho-myosin light chain 2 (Ser19) Ab were from Cell Signaling Technology; anti-GAPDH Ab was from Chemicon International (Temecula, Calif.).

HMVEC-L monolayer = test: Measurement of endothelial permeability in vitro (FITC-albumin)
Procedure: Coster Transwell membranes (Corning Inc. Corning, N.Y.) were coated with 0.5% Gelatin and cells were grown until confluence. Vehicle or proteins with FITC-albumin (1 mg/ml) was added to the luminal chamber for 4 hours, and samples were taken from both the luminal and abluminal chamber for fluorometry analysis. The readings were converted with the use of a standard curve to albumin concentration. These concentrations were then used in the following equation to determine the permeability coefficient of albumin (Pa).
[A] is abluminal concentration; t is time in seconds; A is area of membrane in cm^2; V is volume of abluminal chamber; and [L] is luminal concentration. siRNA Transfection: HMVEC-Ls were seeded and control small interfering RNA (siRNA) (Ambion, Ausin, Tex.) or siRNA directed to human p190RhoGAP (5′-[…]-3′ SEQ ID NO: 5 and 5′-[…]-3′ SEQ ID NO: 6) was transfected using SilentFect Lipid reagent (Bio-Rad) according to the manufacturer's instructions. The cells were used for each experiment 3 days after transfection. Almost 90-100% cells were transfected with siRNA (checked by fluorescent labeled siRNA). Down-regulation of p190RhoGAP was verified by immunoblotting. We tested two different siRNA for the experiment and obtained similar results.

[2] = test system: myosin light chain (MLC) phosphorylation in HMVECs; test: MLC phosphorylation assay (Western blot); conditions: Ang-1 100 ng/ml added
Procedure: After signal starvation with 0.25% FBS EBM-2 for 24 h, cells were treated with 100 ng/ml Ang-2 or vehicle for 0, 1, 3, and 6 hours. Phosphorylated myosin light chain (MLC-p) (phospho-serine 19) and GAPDH were detected by Western blot analysis. For human subject serum effects on HMVECs, serum was diluted to 5% with EBM-2 and filtered with low protein binding PVDF membrane (0.22 μm, Millipore Corp, Bedford, Mass.). Anti-MLC-phospho-serine-19 Ab was obtained from Abcam Inc.

HMVEC-L monolayers = test: Immunostaining of HMVEC-L bathed in HD IL-2 patient serum; conditions: 1:10 serum for 30 minutes, then Ang-1 100 ng/mL
Procedure: Human pulmonary arterial microvascular endothelial cells (HMVECs) (Cambrex Bio Science, Walkersville, Md., United States) cells were cultured in EBM-2 (Cambrex Bio Science) supplemented with 5% fetal bovine serum (FBS) and growth factors according to the manufacturer's instructions. Serum starvation was performed by incubation in 0.25% FBS/EBM-2 for 24 hours.
HMVECs were grown to confluence on glass coverslips coated with 1% gelatin. The cells were fixed for 10 minutes in 4% paraformaldehyde in PBS, and incubated for 5 min in 0.5% Triton X-100 in PBS. After blocking, the monolayers were processed for staining with anti-VE-cadherin monoclonal antibody (BD Biosciences Pharmingen, San Diego, Calif., United States) and Alexa Fluor® 488 goat anti-mouse IgG, rhodamine phalloidin (Molecular Probes, Eugene, Oreg., […]) for F-actin staining and TOPRO-3-iodine (Molecular Probes) for nuclear staining. Fluorescence images were obtained using a Bio Rad MRC confocal fluorescence microscope. For experiments using cells treated with serum from patients, serum Ang-2 concentration was first measured by ELISA. Then, patient serum was diluted to 10% with EBM-2 and filtered with low-protein-binding PVL) F membrane (0.22 lm Millipore) prior to application on EC monolayers.

Tie2 = Tie2 phosphorylation by Ang-1 in HMVEC-L; conditions: Ang-1 100 ng/ml, 15 minutes
Procedure: We lysed HMVEC-L with Triton buffer (50 mM Tris-HCl pH 8.0, 150 mM NaCl, 1% Triton X 100, and 5 mM EDTA) supplemented with protease inhibitors (Roche Diagnostics), 1 mM NaF and 1 mM Na3VO4, adjusting protein concentration by BCA protein assay (Pierce) and incubated 200 μg of total protein with anti-Tie2-Ab (clone Ab33, Upstate, Lake Placid, N.Y.) or p190RhoGAP Ab (Transduction laboratory, Lexington, Ky.) for 3 hours, followed by incubation with protein A sepharose (Zymed, San Francisco, Calif.) for 2 hours at 4° C. After washing the beads, proteins were eluted by heating in SDS-sample buffer and detected by immunoblotting with anti-phospho-tyrosine (clone 4G10, Upstate), anti-Tie-2 Ab, or anti-p190RhoGAP Ab.

B1: Ang-1: Human recombinant angiopoietin-1 purchased from R&D systems; Tie-2 agonist, endogenous Ang-2 antagonist (protein, listed as Homo sapiens)
chain: MTVFLSFAFLAAILTHIGCSNQRRSPENSGRRYNRIQHGQCAYTFILPEHDGNCRESTTDQYNTNALQRDAPHVEPDFSSQKLQHLEHVMENYTQWLQKLENYIVENMKSEMAQIQQNAVQNHTATMLEIGTSLLSQTAEQTRKLTDVETQVLNQTSRLEIQLLENSLSTYKLEKQLLQQTNEILKIHEKNSLLEHKILEMEGKHKEELDTLKEEKENLQGLVTRQTYIIQELEKQLNRATTNNSVLQKQQLELMDTVHNLVNLCTKEGVLLKGGKREEEKPFRDCADVYQAGFNKSGIYTIYINNMPEPKKVFCNMDVNGGGWTVIQHREDGSLDFQRGWKEYKMGFGNPSGEYWLGNEFIFAITSQRQYMLRIELMDWEGNRAYSQYDRFHIGNEKQNYRLYLKGHTGTAGKQSSLILHGADFSTKDADNDNCMCKCALMLTGGWWFDACGPSNLNGMFYTAGQNHGKLNGIKWHYFKGPSYSLRSTTMMIRPLDF
time of peak MLC phosphorylation (MLC-P) after stimulation [1]: 0.5 to 1.0 h
basal monolayer permeability (HMVEC-L monolayer; Ang-1 100 ng/ml, 4 hours): somewhat decreased
effect on endotoxin-induced permeability (HMVEC-L monolayer; LPS with Ang-1): completely reversed
effect on MLC phosphorylation caused by high Ang-2 serum (CE2) [2]: inhibited
rescue of endothelial disruption by high Ang-2 HD IL-2 patient serum (HMVEC-L monolayers): significant attenuation in stress fiber formation; also recorded: rescue effect of Ang-1 was confirmed
Tie2 phosphorylation (Tie2): induces Tie2 phosphorylation

Reference: patent publication US20130252821A1, “METHODS AND COMPOSITIONS FOR THE TREATMENT AND DIAGNOSIS OF DISEASES CHARACTERIZED BY VASCULAR LEAK, HYPOTENSION, OR A PROCOAGULANT STATE” (Beth Israel Deaconess Medical Center, Inc., priority 2005, published 2013)
